Consider three molecules from patent US20260355310A1, “TREATMENT OF IGA NEPHROPATHY USING AN ENDOTHELIN RECEPTOR ANTAGONIST AND APRIL BINDING ANTIBODY” (CHINOOK THERAPEUTICS, INC., priority 2022, published 2026).

The test system of data set [1] is endothelin A (ETA) receptor. Particulars: cited from earlier work.
A short description of data set [2]: Oxidation reduction potential. In kind it is physicochemical.
For data set [3], the system named is patients with diabetic kidney disease (DKD). To be noted: Heerspink et al. 2019; cited from earlier work.
A further data set deals with ETB receptor. Particulars: Wu-Wong et al. 2002; cited from earlier work.
For the next data set, the system named is IgA nephropathy patients. To be noted: DAPA-CKD subanalysis; Wheeler et al. 2021; cited from earlier work.
The subject of data set [4] is human B cell maturation antigen (BCMA) / human APRIL. Briefly: Blocking of APRIL binding to BCMA.
In data set [5] the test system is transmembrane activator and calcium modulator and cyclophilin ligand interactor (TACI) / human APRIL. Particulars: receptors on lymphocytes; Guadagnoli 2011; cited from earlier work.
The subject of data set [6] is human B cell maturation antigen (BCMA) / human APRIL. Particulars: receptors on lymphocytes; Guadagnoli 2011; cited from earlier work.
Another data set has as its system patients with IgAN. Briefly: Phase 1/2 clinical study in patients with IgAN, interim results. In kind it is in vivo, human. An excerpt: BION-1301 has been studied in adults with relapsed or refractory multiple myeloma as well as healthy volunteers (HVs) and adults with IgAN. Since the initiation of the BION-1301 clinical program through 26 Jul. 2022, a total of 153 adults have been enrolled in 5 clinical studies. […] Gd-IgA1, and proteinuria (as measured by areduction in UPCR).
BION-1301 has been studied in adults with relapsed or refractory multiple myeloma as well as healthy volunteers (HVs) and adults with IgAN. Since the initiation of the BION-1301 clinical program through 26 Jul. 2022, a total of 153 adults have been enrolled in 5 clinical studies.

For a further data set, the system named is BAFF. Briefly: Binding to BAFF. To be noted: BION-1301.
Data set [7] relates to healthy cynomolgus monkeys. Briefly: Immunoglobulin levels in healthy cynomolgus monkeys. In kind it is in vivo. An excerpt: (§1) A humanized APRIL antagonistic monoclonal antibody (anti-APRIL antibody, as described herein) is in development for the treatment of IgAN, having undergone clinical trials in healthy volunteers (see clinicaltrials.gov NCT03945318). […] In addition, this blockade reduced Gd-IgAQ1 in healthy human volunteers. Consequently, it is expected that blockade of APRIL in patients with IgAN will lead to a reduction in levels of IgA, IgG, and IgM and corresponding reductions in gd-IgA1, auto-antibodies to gd-IgA1, immune complex deposition and renal damage.

In data set [8] the test system is transmembrane activator and calcium modulator and cyclophilin ligand interactor (TACI) / human APRIL. Briefly: Blocking of APRIL binding to TACI.
The next data set relates to healthy human volunteers. Briefly: Immunoglobulin levels in healthy volunteers. In kind it is in vivo.
Source text: as §1

[9] abbreviates: IV 450 mg Q2W, patients with IgAN, interim results.
[10] abbreviates: SC 600 mg Q2W after at least 24 weeks of IV administration.

The Ki is a dissociation constant, usually derived from enzyme kinetics or from competition with a known ligand. Consider `CCCCN(CCCC)C(=O)CN1C[C@H](c2ccc3c(c2)OCO3)[C@@H](C(=O)O)[C@@H]1c1ccc(OC)cc1` [Atrasentan, (2R,3R,4S)-4-(1,3-benzodioxol-5-yl)-1-[2-(dibutylamino)-2-oxoethyl]-2-(4-methoxyphenyl)pyrrolidine-3-carboxylic acid], for which the “selectivity for ETA relative to ETB” value in data set [1] (ETA inhibitor, ETA relative to ETB, literature) is listed as “about 1,860 times”. Moreover, in data set [1] (ETA relative to ETB, Wu-Wong et al. 2002), the ETA selectivity is ~ 1800 x. The values for the Ki (in [1] (Wu-Wong et al. 2002); at ETB receptor) were about 0.034 nM and about 63 nM, respectively. Moreover, in [2], the oxidation reduction potential result is “about 900 mV”. Further, in data set [3], the “risk of renal events (doubling of serum creatinine or end-stage kidney disease)” value is listed as “significantly reducing the risk of renal events”.

With `CCOc1ccc(Cc2cc([C@@H]3O[C@H](CO)[C@@H](O)[C@H](O)[C@H]3O)ccc2Cl)cc1` [dapagliflozin], the “safety and efficacy as addition to standard of care in IgA nephropathy” value in the data set on IgA nephropathy patients is “may be a safe and effective addition to current standard of care in IgA nephropathy”.

B1: BION-1301: IgG4 humanized monoclonal antibody having CAS Registry No. 2642175-46-8; SEQ ID NO: 28 for the heavy chain and SEQ ID NO: 30 for the light chain (antibody, chains of the INN, looked up, V domains shown)
VH: QVQLVQSGAEVKKPGASVKVSCKASGYTFTDYTIHWVRQATGQGLEWMGWIYPLRGSINYAQKFQGRVTMTADKSISTVYMELSSLRSEDTAVYFCARHGAYYSNAFDYWGQGTLVTVSS
VL: EIVMTQSPATLSVSPGERATLSCRASESVDNDGIRFLHWYQQKPGQAPRLLIYRASTRATGIPARFSGSGSRTEFTLTISSLQSEDFAVYYCQQSNKDPYTFGGGTKVEIK
Regarding B1, the “blocks binding of human APRIL to BCMA” value in data set [4] is on record as “blocks the binding”. In addition, the “blocks interaction of APRIL with TACI” value in data set [5] is “effectively blocks”. Also, the “blocks interaction of APRIL with BCMA” value in data set [6] is reported as “effectively blocks”. Further, in the data set with patients with IgAN (setting [9]), the Gd-IgA1 result was “sustained reductions”, the “free (unbound) APRIL” value was “sustained reductions”, the “proteinuria (as measured by reduction in UPCR)” value was “sustained reductions” and the tolerability entry is “well-tolerated”. Further, in the data set with patients with IgAN (setting [10]), the “BION-1301 exposures after transition to SC dosing” value is on record as “maintained similar BION-1301 exposures”; the “biomarker responses after transition to SC dosing” value is “maintained similar BION-1301 exposures, biomarker responses”; the “proteinuria reductions after transition to SC dosing” value was “maintained similar BION-1301 exposures, biomarker responses and proteinuria reductions”. The “serum BION-1301 concentrations” value in the data set on patients with IgAN (following IV infusion, patients with IgAN vs healthy volunteers at same dose and schedule) was “appeared comparable to those observed in healthy volunteers at the same dose and schedule”. Further, the “24-hour UPCR” value in the data set on patients with IgAN (patients treated with BION-1301, on average) was “reduction in 24-hour UPCR which was evident by 3 months and continue to decline beyond 1 year”. In addition, in the data set on BAFF, the “binding to BAFF” value is “does not bind BAFF”. Moreover, in data set [7], the IgA result is “significantly lower” and the IgM entry is listed as “significantly lower”. In addition, the “blocks binding of human APRIL to TACI” value in data set [8] was “blocks the binding”. For the same molecule, the Gd-IgA1 result in the data set with healthy human volunteers (healthy human volunteers) is “reduced”. In addition, the “levels of IgA” value in the data set on healthy human volunteers (healthy volunteers) is “significantly reduce the levels of IgA”.
